B1: Natural cytotoxicity triggering receptor 3 (Homo sapiens), O14931 (parent)
chain: MAWMLLLILIMVHPGSCALWVSQPPEIRTLEGSSAFLPCSFNASQGRLAIGSVTWFRDEVVPGKEVRNGTPEFRGRLAPLASSRFLHDHQAELHIRDVRGHDASIYVCRVEVLGLGVGTGNGTRLVVEKEHPQLGAGTVLLLRAGFYAVSFLSVAVGSTVYYQGKCLTWKGPRRQLPAVVPAPLPPPCGSSAHLLPPVPGG
partner: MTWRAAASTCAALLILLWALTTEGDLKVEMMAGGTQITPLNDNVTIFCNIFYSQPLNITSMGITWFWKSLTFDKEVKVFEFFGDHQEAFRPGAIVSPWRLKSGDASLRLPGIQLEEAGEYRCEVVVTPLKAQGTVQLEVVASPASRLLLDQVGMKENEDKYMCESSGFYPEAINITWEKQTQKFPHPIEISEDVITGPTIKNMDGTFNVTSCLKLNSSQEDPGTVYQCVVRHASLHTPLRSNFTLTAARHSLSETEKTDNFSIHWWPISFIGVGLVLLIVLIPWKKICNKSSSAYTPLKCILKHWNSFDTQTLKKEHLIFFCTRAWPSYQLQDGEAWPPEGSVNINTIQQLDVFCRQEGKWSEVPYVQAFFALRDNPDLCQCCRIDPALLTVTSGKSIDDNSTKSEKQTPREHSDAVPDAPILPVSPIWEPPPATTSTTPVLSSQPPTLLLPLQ

Variants of: B1
Conditions: with nr3l1_human NCR3LG1, Q68D85

Variant | effect of a mutation on the interaction
I50A;S52A | decreasing interaction strength
R109S;E111S;L113A | decreasing interaction strength
R109E;E111R;L113A | decreasing interaction strength
E65S;R67S | decreasing interaction strength

— IntAct's records for PubMed 21444796
